Test results as given in the RNAGym collection of RNA variant scans (doi:10.1093/molbev/msab373).

B1: Azoarcus group I ribozyme (parent)
chain: GUGCCUUGCGCCGGGAAACCACGCAAGGGAUGGUGUCAAAUUCGGCGAAACCUAAGCGCCCGCCCGGGCGUAUGGCAACGCCGAGCCAAGCUUCGGCGCCUGCGCCGAUGAAGGUGUAGAGACUAGACGGCACCCACCUAAGGCAAACGCUAUGGUGAAGGCAUAGUCCAGGGAGUGGCGAAAGUCACACAAACCGG

Variants of: B1
Test: reverse-splicing fitness (ratio to wild type); higher = more active; in vitro selection; Mg2+ level not given
Procedure, shortened: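 An in vitro group I ribozyme library with randomized positions was T7-transcribed and gel-purified. In triplicate, 10 pmol RNA in EPPS pH 7.5 was reacted with 50 pmoles of a 30-nt RNA substrate for 1 h at 37 °C across several added MgCl2 levels (1–48 mM), then stopped with EDTA. Products were reverse transcribed from a substrate-complementary primer, PCR-amplified and sequenced (HiSeq 4000). Fitness is a variant's read proportion after selection over that before, normalised to wild type.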

Variant | reverse-splicing fitness
C82G A111U A120G C150A C169A U176G | 0.00601
C82G A111U A120G C150A C169A U176C | 0.0211
C82G A111U A120G C150A C169A U176A | 0.0207
C82G A111U A120G A145G C150G | 0.00786
C82G A111U A120G A145G C150U | 0.0139
C82G A111U A120G A145U C150G C169U U176G | 0.00505
C82G A111U A120G A145U C150G C169U U176A | 0.0111
C82G A111U A120G A145U C150G C169U U176C | 0.013
C82G A111U A120G A145G C169A U176G | 0.00491
C82G A111U A120G A145G C169A U176C | 0.0214
C82G A111U A120G A145G C169A U176A | 0.0172
C82G A111U A120U A145G C150A C169U | 0.00464
C82G A111U A120U A145G C150A C169G | 0.00555
C82G A111U A120U A145G C150A C169A | 0.00617
C82G A111U A120U A145G C150U C169A | 0.00699
C82G A111U A120U A145G C150U C169G | 0.00641
C82G A111U A120U A145G C150U C169U | 0.00655
C82G A111U A120G A145U C150A C169G | 0.00835
C82G A111U A120G A145U C150A C169U | 0.00711
C82G A111U A120G A145U C150A C169A | 0.00975
C82G A111U A120G C150U U176C | 0.0178

Variant | reverse-splicing fitness
C82G A111U A120G C150U U176A | 0.0111
C82G A111U A120G C150U U176G | 0.011
C82G A111U A120G A145U C150G C169A | 0.00944
C82G A111U A120G A145U C150G C169U | 0.00825
C82G A111U A120G A145U C150G C169G | 0.00774
C82G A111U A120G C150G C169A | 0.00883
C82G A111U A120G C150G C169G | 0.00797
C82G A111U A120G C150G C169U | 0.00861
C82G A111U A120U A145U C150A C169G U176C | 0.003
C82G A111U A120U A145U C150A C169G U176A | 0.00335
C82G A111U A120U A145U C150A C169G U176G | 0.00186
C82G A111U A120U A145C C150U C169A U176C | 0.0022
C82G A111U A120U A145C C150U C169A U176G | 0.00176
C82G A111U A120U A145C C150U C169A U176A | 0.00212
C82G A111U A120U A145U C150G C169G | 0.00336
C82G A111U A120U A145U C150G C169A | 0.00362
C82G A111U A120G C150U C169A | 0.0112
C82G A111U A120G C150U C169G | 0.0112
C82G A111U A120G C150U C169U | 0.0101
C82G A111U A120U A145G C150A C169U U176A | 0.00402
C82G A111U A120U A145G C150A C169U U176C | 0.00514

Variant | reverse-splicing fitness
C82G A111U A120U A145G C150A C169U U176G | 0.00285
C82G A111U A120G A145U C150G U176A | 0.00634
C82G A111U A120G A145U C150G U176G | 0.0039
C82G A111U A120G A145U C150G U176C | 0.0104
C82G A111U A120G A145G C150A C169U U176C | 0.0177
C82G A111U A120G A145G C150A C169U U176A | 0.0204
C82G A111U A120G A145G C150A C169U U176G | 0.00642
C82G A111U A120G C150G C169G U176A | 0.0069
C82G A111U A120G C150G C169G U176G | 0.00471
C82G A111U A120G C150G C169G U176C | 0.00484
C82G A111U A120U A145C C150U C169G U176A | 0.00298
C82G A111U A120U A145C C150U C169G U176C | 0.00262
C82G A111U A120U A145C C150U C169G U176G | 0.0021
C82G A111U A120G A145G C150U U176G | 0.00777
C82G A111U A120G A145G C150U U176A | 0.00946
C82G A111U A120G A145G C150U U176C | 0.0167
C82G A111U A120U A145C C150G C169G U176A | 0.00357
C82G A111U A120U A145C C150G C169G U176C | 0.00235
C82G A111U A120U A145C C150G C169G U176G | 0.00237
C82G A111U A120G A145U C150G C169A U176G | 0.00513
C82G A111U A120G A145U C150G C169A U176C | 0.0114

Variant | reverse-splicing fitness
C82G A111U A120G A145U C150G C169A U176A | 0.0104
C82G A111U A120G A145U C150U | 0.0139
C82G A111U A120G A145U C150G | 0.00715
C82G A111U A120G A145U C150A | 0.00819
C82G A111U A120G A145U C150A C169U U176G | 0.00528
C82G A111U A120G A145U C150A C169U U176C | 0.0142
C82G A111U A120G A145U C150A C169U U176A | 0.0183
C82G A111U A120U A145C C169U | 0.00386
C82G A111U A120U A145C C169A | 0.00222
C82G A111U A120U A145C C169G | 0.00383
C82G A111U A120G C150G C169A U176G | 0.00726
C82G A111U A120G C150G C169A U176C | 0.0111
C82G A111U A120G C150G C169A U176A | 0.0115
C82G A111U A120U A145G C150U U176G | 0.00433
C82G A111U A120U A145G C150U U176C | 0.0151
C82G A111U A120U A145G C150U U176A | 0.0103
C82G A111U A120G A145G C150G C169A | 0.00911
C82G A111U A120G A145G C150G C169G | 0.00782
C82G A111U A120G A145G C150G C169U | 0.00909
C82G A111U A120G A145U C169U U176C | 0.0158
C82G A111U A120G A145U C169U U176A | 0.0185
